We go through four molecules from US20070203071A1 (published 2007).

Non-standard residues stand in square brackets, D forms with d. No end group written: not given here. Bpa = N[C@@H](Cc1ccc(C(=O)c2ccccc2)cc1)C(=O)O; hArg = N=C(N)NCCCC[C@H](N)C(=O)O; Ac5c = NC1(C(=O)O)CCCC1; Deg = CCC(N)(CC)C(=O)O; desNH2 = X is (desNH2); Aib = CC(C)(N)C(=O)O

Sequences and labels used below:
B1: Deg1,3,Bpa2 (peptide)
peptide: [Deg][Bpa][Deg]EIQLMHQ[hArg]AKW-NH2
modifications: N-terminus assumed
SMILES: CC[C@H](C)[C@H](NC(=O)[C@H](CCC(=O)O)NC(=O)C(CC)(CC)NC(=O)[C@H](Cc1ccc(C(=O)c2ccccc2)cc1)NC(=O)C(N)(CC)CC)C(=O)N[C@@H](CCC(N)=O)C(=O)N[C@@H](CC(C)C)C(=O)N[C@@H](CCSC)C(=O)N[C@@H](Cc1c[nH]cn1)C(=O)N[C@@H](CCC(N)=O)C(=O)N[C@@H](CCCCNC(=N)N)C(=O)N[C@@H](C)C(=O)N[C@@H](CCCCN)C(=O)N[C@@H](Cc1c[nH]c2ccccc12)C(N)=O
B2: Deg1,3 (peptide)
peptide: [Deg]V[Deg]EIQLMHQ[hArg]AKW-NH2
modifications: N-terminus assumed
SMILES: CC[C@H](C)[C@H](NC(=O)[C@H](CCC(=O)O)NC(=O)C(CC)(CC)NC(=O)[C@@H](NC(=O)C(N)(CC)CC)C(C)C)C(=O)N[C@@H](CCC(N)=O)C(=O)N[C@@H](CC(C)C)C(=O)N[C@@H](CCSC)C(=O)N[C@@H](Cc1c[nH]cn1)C(=O)N[C@@H](CCC(N)=O)C(=O)N[C@@H](CCCCNC(=N)N)C(=O)N[C@@H](C)C(=O)N[C@@H](CCCCN)C(=O)N[C@@H](Cc1c[nH]c2ccccc12)C(N)=O
B3: parent (peptide)
peptide: [Ac5c]V[Aib]EIQLMHQ[hArg]AKW-NH2
modifications: N-terminus assumed
SMILES: CC[C@H](C)[C@H](NC(=O)[C@H](CCC(=O)O)NC(=O)C(C)(C)NC(=O)[C@@H](NC(=O)C1(N)CCCC1)C(C)C)C(=O)N[C@@H](CCC(N)=O)C(=O)N[C@@H](CC(C)C)C(=O)N[C@@H](CCSC)C(=O)N[C@@H](Cc1c[nH]cn1)C(=O)N[C@@H](CCC(N)=O)C(=O)N[C@@H](CCCCNC(=N)N)C(=O)N[C@@H](C)C(=O)N[C@@H](CCCCN)C(=O)N[C@@H](Cc1c[nH]c2ccccc12)C(N)=O
B4: desNH2-AC5C1 (peptide)
peptide: desNH2-[Ac5c]V[Aib]EIQLMHQ[hArg]AKW-NH2

The experiment addresses -. Description: competition binding, 125I-PTH(1-15) tracer, HKRK-B28 cells.
Regarding B1, the IC50 stood at 840 nM.

With B2, the IC50 was determined as 230 nM. To B3 belongs 30 nM; to B4, 1800 nM.
